Reference: publication PMC13170167, “Magnetosome organelles are organized through interactions between McaA and McaB that alter the dynamics of the bacterial actin-like protein MamK” (mBio, 2026)

Molecular target: the molecule itself
Test: co-sedimentation; pelleting assay; each protein at 1 µM in polymerization buffer (10 mM Tris-HCl pH 7.5, 25 mM KCl, 2 mM MgCl2, 1 mM DTT) with 1 mM ATP, 25°C for 10 min, 100,000 x g for 30 min at 4°C; SDS-PAGE of pellet and supernatant

B1: MamK (untagged recombinant) (natural protein, Magnetospirillum magneticum AMB-1, UniProt Q2W8Q6 1-347, looked up)
chain: MSEGEGQAKNRLFLGIDLGTSHTAVMSSRGKKFLLKSVVGYPKDVIGLKLLGRPYVVGDEAFEMRSYLDIRYPLQDGVLSEISDRDIEVARHLLTHVVKSAEPGPNDEICAVIGVPARASAANKALLLKMAQEVVHTALVVSEPFMVGYGLDKLINTIIVDIGAGTTDICALKGTVPGPEDQVTLTKAGNYVDERLQNAILERHPELQMNVNVACAVKEQFSFVGTPTEVASFEFRAAGKPVRADVTEPVKIACEALMPDIIESIETLLRSFQPEYQATVLQNIVFAGGGSRIRGLAAYVKEKLRPFGDANVTCVKDPTFDGCRGALRLAEELPPQYWRQLGDVSGS
notes: MamK, bacterial actin-like protein of Magnetospirillum magneticum AMB-1; untagged; printed as 37.6 kDa; monomeric fractions were pooled; it forms filaments with ATP in polymerization buffer; also called purified MamK; MamK filaments; source: E. coli BL21, purified (ammonium sulfate precipitation, anion exchange, gel filtration)
  binding result: binds
